Test results as given in patent US20230265187A1 (published 2023).
Where a chain is given by its changes, count along the chain named. Each block holds one binder with its values, some of them ahead of it.

Legend:
[1] = target: T1, his-tagged human TIGIT (Acro Biosystems #TIT-H52H3) (human, UniProt Q495A1 22-141); assay: SPR (Carterra LSA), scFv-Fc captured, His-TIGIT analyte
T1 construct: Bought protein; also called His-tagged-TIGIT (human); not shown: his tag
T1 sequence (looked up): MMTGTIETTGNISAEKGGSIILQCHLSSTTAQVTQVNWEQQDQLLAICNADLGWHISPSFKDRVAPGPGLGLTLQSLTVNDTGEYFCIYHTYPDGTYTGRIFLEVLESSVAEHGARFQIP
Method: (§1) Binding affinities of anti-TIGIT antibodies to human, cyno, and murine TIGIT were measured by Surface Plasmon Resonance (SPR) on a Carterra LSA instrument. Goat anti-human Fc antibody was amine coupled to a HC30M chip. ScFv-Fc supernatants were diluted 30-fold with HBSTE and were captured by the anti-human Fc coupled HC30M chip. A 1:2 dilution series of his-tagged human TIGIT, starting at 400 nM, was injected onto the chip for binding. A dilution series was also carried out for cyno TIGIT and murine TIGIT. Data were analyzed using the Carterra™ Kinetics software.

[2] = target: T2, his-tagged murine TIGIT (Acro Biosystems #TIT-M52E6) (murine, UniProt P86176 29-148, limits assumed); assay: ELISA, coated His-TIGIT, 1 ug/ml
T2 construct: Bought protein; also called mouse his-tagged TIGIT; not shown: his tag
T2 sequence (looked up): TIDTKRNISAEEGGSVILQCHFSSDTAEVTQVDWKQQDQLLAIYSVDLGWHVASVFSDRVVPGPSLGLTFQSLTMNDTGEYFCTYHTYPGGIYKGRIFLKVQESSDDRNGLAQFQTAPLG

[3] = target: T1, his-tagged human TIGIT (Acro Biosystems …); assay: ELISA, coated His-TIGIT, 1 ug/ml
[4] = target: T3, His-tagged cynomolgus monkey TIGIT (Acro Biosystems #TIT-05223) (cynomolgus monkey, UniProt A0A7N9I9V4 89-209); assay: ELISA, coated His-TIGIT, 1 ug/ml
T3 construct: Bought protein; also called cyno TIGIT; cynomolgus TIGIT; not shown: His tag

[5] = target: T4, human TIGIT on Jurkat cells (TIGIT/NFAT reporter Jurkat cells, BPS Bioscience #60538); Promega TIGIT Effector … (human, UniProt Q495A1 22-244); assay: flow cytometry, TIGIT/NFAT Jurkat cells, 10 ug/ml
T4 construct: whole, on cells; Same protein on two bought Jurkat lines (flow cytometry: BPS; bioassay: Promega); also called hu TIGIT cells; cells expressing human TIGIT
T4 sequence (looked up): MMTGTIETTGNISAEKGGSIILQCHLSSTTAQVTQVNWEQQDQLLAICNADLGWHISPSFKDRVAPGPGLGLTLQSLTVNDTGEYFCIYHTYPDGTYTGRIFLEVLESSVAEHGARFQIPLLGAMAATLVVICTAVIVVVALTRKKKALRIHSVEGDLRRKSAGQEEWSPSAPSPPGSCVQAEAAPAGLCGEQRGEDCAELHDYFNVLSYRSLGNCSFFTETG

[6] = target: T3, His-tagged cynomolgus monkey TIGIT …; assay: SPR (Carterra LSA), scFv-Fc captured, His-TIGIT analyte
Method: as §1

[7] = target: T4, human TIGIT on Jurkat cells (TIGIT/NFAT …); assay: cell-based or functional assay

T3 sequence (A0A7N9I9V4 entry or part of it): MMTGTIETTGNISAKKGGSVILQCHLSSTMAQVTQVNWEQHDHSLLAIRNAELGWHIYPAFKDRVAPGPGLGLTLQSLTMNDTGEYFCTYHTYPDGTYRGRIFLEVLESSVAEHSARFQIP

Kd [1]: 67.3 nM
Elisa OD450 [2]: 0.047 OD450
Elisa OD450 [3]: 1.16 OD450
Elisa OD450 [4]: 0.047 OD450
MFI [5]: 6110 MFI
B1: 43586p2.B03 (scFv, V domains shown)
VH: EVQLLESGGGWVQPGGSLRLSCAASGFTFIDYWMSWVRQAPGKGLEWVSSISWIGDTTFYADSVKGRFTISRDSSLNTVYLQMNSLRAEDTAVYYCAKHWTVYQYGMDVWGQGTTVTVSS
VL: QSVLTQPPSASGTPGQRVTISCSGGSSKIGSKYVHWYQQLPGTAPKLLIYKDDQRPSGVPDRFSGSKSGTSASLAISGLQSEDEADYYCAAWDDRVNAWVFGGGTKLTVL

Elisa OD450 [2]: 0.052 OD450
Elisa OD450 [3]: 0.477 OD450
Elisa OD450 [4]: 0.069 OD450
MFI [5]: 4100 MFI
B2: 43645p1.F12 (scFv, V domains shown)
VH: EVQLLESGGGLVQPGGSLRLSCAASGFTFSDYWMSWVRQAPGKGLEWVSSINWNGDNTYYYADSVKGRFTISRDNSKNTLYLQMNSLRAEDTAVYYCAKSHTVLQYGMDVWGQGTTVTVSS
VL: QSVLTQPPSASGTPGQRVTISCSGSSSNIQSNYVYWYQQLPGTAPKLLIYGNHQRPSGVPDRFSGSKSDTSASLAISGLQSEDEADYYCATWDASLNVWVFGGGTKLTVL

Kd [1]: 0.119 nM
Elisa OD450 [2]: 0.07 OD450
Elisa OD450 [3]: 1.84 OD450
Elisa OD450 [4]: 1.32 OD450
MFI [5]: 9320 MFI
B3: 43586p2.B05 (scFv, V domains shown)
VH: EVQLLESGGGLVQPGGSLRLSCAASGFTFSDYYMNWVRQAPGKGLEYVASINWNGGTTYYADSVKGRFTISRDNSKNTLYLQMSSLRAEDTAVYYCAKDQNWNFYYGMDVWGQGTTVTVSS
VL: QSVLTQPPSASGTPGQRVTISCSGGSSNIGNNFVSWYQQLPGTAPKLLIYNEIKRPSGVPDRFSASKSGTSASLAISGLQSEDEADYYCASWDGSLRGWVFGGGTKLTVL

Kd [1]: 0.383 nM
Kd [6]: 3.69 nM
Elisa OD450 [2]: 0.046 OD450
Elisa OD450 [3]: 1.49 OD450
Elisa OD450 [4]: 0.817 OD450
MFI [5]: 6710 MFI
B4: 43586p1.1.C2 (scFv, V domains shown)
VH: B3 VH with Y47W, A49S, K76R, S84N
VL: B3 VL with N31T, F33Y, I49L, N51K, I53D, K54Q, A65G, S91T, G98S

Kd [1]: 0.151 nM
Elisa OD450 [2]: 0.046 OD450
Elisa OD450 [3]: 1.81 OD450
Elisa OD450 [4]: 1.32 OD450
MFI [5]: 7770 MFI
B5: 43586p2.C01 (scFv, V domains shown)
VH: B3 VH with S84N
VL: B3 VL

Kd [1]: 0.0906 nM
Elisa OD450 [2]: 0.052 OD450
Elisa OD450 [3]: 1.76 OD450
Elisa OD450 [4]: 1.38 OD450
MFI [5]: 9410 MFI
B6: 43645p1.B8 (scFv, V domains shown)
VH: EVQLLESGGGLVQPGGSLRLSCAASGFTFSDFWMSWVRQAPGKGLEWVSSIINIQTYDYATYYADSVKGRFTISRDNSKNTLYLQMNSLRAEDTAIYYCAKDVAPGLPGGMDVWGQGTTVTVSS
VL: QSVLTQPPSASGTPGQRVTISCSGSNSNIRNNFVSWYQHLPGMAPKLLIYGNSQRPSGVPDRFSGSKSGTSASLAISGLQSEDEADYYCTSWDFSVNGWVFGGGTKLTVL

Kd [1]: 0.195 nM
Kd [6]: 23.5 nM
Elisa OD450 [2]: 0.065 OD450
Elisa OD450 [3]: 1.86 OD450
Elisa OD450 [4]: 1.39 OD450
MFI [5]: 16500 MFI
B7: 43645p1.C9 (scFv, V domains shown)
VH: B6 VH
VL: B6 VL with M43T, N97S

Kd [1]: 0.0741 nM
Elisa OD450 [2]: 0.489 OD450
Elisa OD450 [3]: 1.97 OD450
Elisa OD450 [4]: 1.52 OD450
MFI [5]: 15400 MFI
B8: 43645p1.F7 (scFv, V domains shown)
VH: B6 VH
VL: B6 VL with M43T

Kd [1]: 1.08 nM
Kd [6]: 18.8 nM
Elisa OD450 [2]: 0.046 OD450
Elisa OD450 [3]: 2.23 OD450
Elisa OD450 [4]: 1.6 OD450
max. signal (% of 22G2) [7]: 113 % of 22G2
MFI [5]: 9000 MFI
B9: 43586p1.1.G9 (scFv, V domains shown)
VH: EVQLLESGGGLVQPGGSLRLSCAASGFTFTTYAMSWVRQAPGKGLEWVAGISYIGSDKYYADSVKGRLTISRDNSKNTLYLQMDSLRAEDTAVYYCAKHLTGGTTDYYYYGMDVWGQGTTVTVS
VL: QSVLTQPPSASGTPGQRVTISCSGSTSNIGTSRYVHWYQHLPGTAPKLLIYLDSQRPSGVPDRFSASKSGTSASLAISGLQSEDEADYYCSAWDDSLSAWVFGGGTKLTVL

Kd [1]: 0.0888 nM
Elisa OD450 [2]: 1.69 OD450
Elisa OD450 [3]: 2.18 OD450
Elisa OD450 [4]: 1.65 OD450
max. signal (% of 22G2) [7]: 119 % of 22G2
MFI [5]: 9040 MFI
B10: 43645p1.C11 (scFv, V domains shown)
VH: EVQLLESGGGLVQPGGSLRPSCATSGFTFSSYWMSWVRQAPGKGLEWVSGIHISDSTYYADSVKGRFTISRDNSKNTLYLQMNSLRAEDTAVYYCAKGHTVLQYGMDVWGQGTTVTVSS
VL: QSGLTQPPSASGTPGQRVTISCSGDISNTRNNYVSWYQQLPGTAPKLLIYGNHQRPSGVPDRFSGSKSATSASLAISGLQSEDEADYYCGTWDNTLNAWVFGGGTKLTVL

Elisa OD450 [2]: 1.82 OD450
Elisa OD450 [3]: 1.69 OD450
Elisa OD450 [4]: 0.239 OD450
MFI [5]: 13700 MFI
B11: 43586p1.2.A4 (scFv, V domains shown)
VH: EVQLLESGGGLVQPGGSLRLSCAASGFTVSDHHMSWVRQAPGKGLEWVSGIDPGGKTYYVDSVKGRFTISRDNSKNTLYLQMNSLRAEDTAVYYCAREQYDWNDDMDVWGQGTTVTVSS
VL: QSVLTQPPSASGTPGQRVTISCSGSRSNVGDHYVSWYQQFPGTAPKLLIYANYQRPSGVPDRFSGSKSGTSASLAISGLQSEDEADHYCASWDASLNVWVFGGGTKLTVL

Elisa OD450 [2]: 1.29 OD450
Elisa OD450 [3]: 1.75 OD450
Elisa OD450 [4]: 0.987 OD450
MFI [5]: 14400 MFI
B12: 43586p2.F10 (scFv, V domains shown)
VH: VESGGGLVQPGGSLRLSCAASGFTVSDHYVSWVRQAPGKGLEWVSTSSSTNWNDGRTYYADSVKGRFTISRDNSENTLYLQMNSLRAEDTAVYYCAKDQYKGNDYYYYGMDVWGQGTTVTVSS
VL: QSVLTQPPSASGTPGQRVTISCSASNSYIGTKYFYWYQQLPGTAPKLLIYLDSQRPSGVPDRFSGSKSGTSVSLAISGLQSEDEADYYCAFWDDHLHGWVFGGGTKLTVL

Kd [1]: 0.0716 nM
Elisa OD450 [2]: 0.056 OD450
Elisa OD450 [3]: 0.677 OD450
Elisa OD450 [4]: 0.048 OD450
max. signal (% of 22G2) [7]: 101 % of 22G2
MFI [5]: 8790 MFI
B13: 43352p1.A11 (scFv, V domains shown)
VH: DVQLVESGGGVVRPGESLRLSCAASGFTFSSHAMSWVRQAPGEGLEWVSLTSGNGVSAYYADSVKGRFTISRDNSKNTLYLQMNSLSAEDTAIYYCARGTYLISFFDYWGLGTLVTVSS
VL: QSVLTQPPSASGTPGQRVTISCSGISAKIGNNYVSWYQQLPGTAPKLLIYFNNQRPSGVPDRFSGSKSGTSASLAISGLQSEDEADYYCASWDDSLNAWLFGGGTKLTVL

Kd [1]: 0.0685 nM
Elisa OD450 [2]: 0.046 OD450
Elisa OD450 [3]: 2.15 OD450
Elisa OD450 [4]: 0.044 OD450
max. signal (% of 22G2) [7]: 105 % of 22G2
MFI [5]: 8650 MFI
B14: 43352p1.D11 (scFv, V domains shown)
VH: B13 VH with T51I
VL: B13 VL
